This is an account of results in paper PMC7802366 (The Journal of Cell Biology, 2021).

Test [1] concerns the target p150^GLUED subunit of dynactin, endogenous (human (endogenous in HEK-293), UniProt Q14203-1 1-1278). The test is described as follows: pull-down.
Test [2] concerns the target dynein heavy chain (DHC), native (human (endogenous in HEK-293), UniProt Q14204 1-4646). The test is described as follows: pull-down.

Sequence of p150^GLUED subunit of dynactin, endogenous (Q14203 whole entry): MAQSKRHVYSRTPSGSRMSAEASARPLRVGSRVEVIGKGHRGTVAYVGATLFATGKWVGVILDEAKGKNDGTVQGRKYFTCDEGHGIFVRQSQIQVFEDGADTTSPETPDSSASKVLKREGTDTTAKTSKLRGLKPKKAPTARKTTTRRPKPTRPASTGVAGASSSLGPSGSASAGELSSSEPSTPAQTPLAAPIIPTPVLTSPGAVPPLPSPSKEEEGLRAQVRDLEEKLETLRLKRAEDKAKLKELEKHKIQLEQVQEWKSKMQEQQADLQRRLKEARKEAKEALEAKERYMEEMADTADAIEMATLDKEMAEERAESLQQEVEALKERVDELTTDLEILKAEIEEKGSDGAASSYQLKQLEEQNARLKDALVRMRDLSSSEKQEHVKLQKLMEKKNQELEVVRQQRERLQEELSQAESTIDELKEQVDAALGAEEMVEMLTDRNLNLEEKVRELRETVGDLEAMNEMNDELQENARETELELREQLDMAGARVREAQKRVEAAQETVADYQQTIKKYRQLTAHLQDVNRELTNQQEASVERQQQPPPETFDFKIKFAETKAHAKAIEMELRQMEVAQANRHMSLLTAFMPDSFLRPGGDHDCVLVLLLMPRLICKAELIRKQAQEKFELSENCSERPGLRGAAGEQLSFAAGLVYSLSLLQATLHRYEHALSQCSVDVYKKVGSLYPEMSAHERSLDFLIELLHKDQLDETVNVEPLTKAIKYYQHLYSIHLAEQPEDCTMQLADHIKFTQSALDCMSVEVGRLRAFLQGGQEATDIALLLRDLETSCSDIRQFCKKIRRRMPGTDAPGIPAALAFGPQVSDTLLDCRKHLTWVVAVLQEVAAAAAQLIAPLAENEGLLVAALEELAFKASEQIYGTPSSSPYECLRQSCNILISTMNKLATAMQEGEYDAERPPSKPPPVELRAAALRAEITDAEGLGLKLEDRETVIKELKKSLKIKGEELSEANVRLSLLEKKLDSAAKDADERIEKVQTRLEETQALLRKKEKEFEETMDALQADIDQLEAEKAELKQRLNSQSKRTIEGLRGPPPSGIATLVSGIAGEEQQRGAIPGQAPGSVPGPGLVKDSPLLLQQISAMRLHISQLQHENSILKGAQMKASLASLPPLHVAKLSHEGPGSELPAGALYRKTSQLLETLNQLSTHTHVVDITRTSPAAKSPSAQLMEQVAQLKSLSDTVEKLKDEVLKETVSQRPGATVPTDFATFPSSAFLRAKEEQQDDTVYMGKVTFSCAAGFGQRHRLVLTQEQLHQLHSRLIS

B1: His-SEPT9 (recombinant full-length SEPT9 isoform 1) (natural protein, human, UniProt Q9UHD8-1 1-586, looked up)
chain: MKKSYSGGTRTSSGRLRRLGDSSGPALKRSFEVEEVETPNSTPPRRVQTPLLRATVASSTQKFQDLGVKNSEPSARHVDSLSQRSPKASLRRVELSGPKAAEPVSRRTELSIDISSKQVENAGAIGPSRFGLKRAEVLGHKTPEPAPRRTEITIVKPQESAHRRMEPPASKVPEVPTAPATDAAPKRVEIQMPKPAEAPTAPSPAQTLENSEPAPVSQLQSRLEPKPQPPVAEATPRSQEATEAAPSCVGDMADTPRDAGLKQAPASRNEKAPVDFGYVGIDSILEQMRRKAMKQGFEFNIMVVGQSGLGKSTLINTLFKSKISRKSVQPTSEERIPKTIEIKSITHDIEEKGVRMKLTVIDTPGFGDHINNENCWQPIMKFINDQYEKYLQEEVNINRKKRIPDTRVHCCLYFIPATGHSLRPLDIEFMKRLSKVVNIVPVIAKADTLTLEERVHFKQRITADLLSNGIDVYPQKEFDEDSEDRLVNEKFREMIPFAVVGSDHEYQVNGKRILGRKTKWGTIEVENTTHCEFAYLRDLLIRTHMQNIKDITSSIHFEAYRVKRLNEGSSAMANGMEEKEPEAPEM
Turning to B1, the binding result in test [1] and in test [2] was “binds” in each case.

B2: His-SEPT9 NTE domain (aa 1–283) (domain or fragment, human, UniProt Q9UHD8-1 1-283, looked up)
chain: MKKSYSGGTRTSSGRLRRLGDSSGPALKRSFEVEEVETPNSTPPRRVQTPLLRATVASSTQKFQDLGVKNSEPSARHVDSLSQRSPKASLRRVELSGPKAAEPVSRRTELSIDISSKQVENAGAIGPSRFGLKRAEVLGHKTPEPAPRRTEITIVKPQESAHRRMEPPASKVPEVPTAPATDAAPKRVEIQMPKPAEAPTAPSPAQTLENSEPAPVSQLQSRLEPKPQPPVAEATPRSQEATEAAPSCVGDMADTPRDAGLKQAPASRNEKAPVDFGYVGIDS
Regarding B2, in test [1], the binding result is reported as “binds”.

B3: His-SEPT9 G domain (aa 283–586) (domain or fragment, human, UniProt Q9UHD8-1 283-586, looked up)
chain: SILEQMRRKAMKQGFEFNIMVVGQSGLGKSTLINTLFKSKISRKSVQPTSEERIPKTIEIKSITHDIEEKGVRMKLTVIDTPGFGDHINNENCWQPIMKFINDQYEKYLQEEVNINRKKRIPDTRVHCCLYFIPATGHSLRPLDIEFMKRLSKVVNIVPVIAKADTLTLEERVHFKQRITADLLSNGIDVYPQKEFDEDSEDRLVNEKFREMIPFAVVGSDHEYQVNGKRILGRKTKWGTIEVENTTHCEFAYLRDLLIRTHMQNIKDITSSIHFEAYRVKRLNEGSSAMANGMEEKEPEAPEM
For the molecule B3, the binding result in test [1] and in test [2] was “binds” each time.
